Assay results as given in the nanobody polyreactivity screen of Harvey et al. (2022).

Test: yeast display, Sf9 membrane polyspecificity reagent, FACS + sequencing; frameworks hold sequencing errors
Outline: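 In a synthetic yeast display library (Saccharomyces cerevisiae BJ5465), nanobody expression was induced with galactose for 36–48 hours. FACS gates were set low and high (top ~1%) using anti-HA fluorescence for expression and streptavidin fluorescence for binding of the Sf9 membrane reagent. Each polyreactivity label is drawn from the gate of origin.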

Row | Sequence | polyreactivity (PSR sort gate)
1 | QVQLVESGGGLVQAGGSLRLSCAASGIIFTDNALGWYRQAPGKERELVATISWSTDNTYYADSVKGRFTISRDNAKNTVYLQMNSLKPEDTAVYYCAAEEYYAYWYQYDYWGQGTQVTVSS | low polyreactivity
2 | QVQLVESGGGLVQAGGSLRLSCAASGSIFYYNAMGWYSQAPGKERELVAAITGSGGSTYYADSVKGRFTISRDNAKNTVYLQMNSLKPEDTAVYYCAADYSLYGWWFRNDYWGQGTQVTVSS | low polyreactivity
3 | QVQLVESGGGLVQAGGSLRLTCAASGSTFYYNAMGWYRQAPAKERELVADISWRGGITYYADSVKGRFTISRDNAKNTVYLQMNSLKPEDTAVYYFKADAESFDDGYWGQGTQVTVSS | low polyreactivity
4 | QVQLVESGGGLVQAGGSLRLSCAASGFIWSYVMGWYRQAPGKERQLVAAISRSGGRTYYADSVKGRFTISRDNEKNTVYLQMNSLKPEDTAVYYCAKDGGWSRLHYNYWGQGTQVTVSS | high polyreactivity
5 | QVHLVESGGGLVQAGGSLRLSCAASGSTFTLNAMGWYRQAPGKERELVAAITWDGGSTYYADSVKGRFTISRDNAKNTVYLQMNSLKPEDTAVYFCAADREFWWEVVYTYEYYYWGQGTQVTVSS | low polyreactivity
6 | QLQLVESGGGLVQAGGSLRLSCAASGSIFNRYAMGSYRQAPGKERELVAAITRSAARTYYADSVKGRFTISRDNAKTTVYLQMNRLKPEDTAVYYCKAATTPYGYSYYYLGQGTQVTVSS | high polyreactivity
7 | QVQLVESGGGLVQAGASLRLSCAASGFTFDENAMGWYRQAPGINYSGASTYYAHSVKGRFTISRDNAKNTVYIHMNSLQPEDTAVYYCAAEVVAQMNYWGQGTQVTVSS | low polyreactivity
8 | QVQLVESGGGLVQAGGSLRLSCAASGSIFNYYAMGWYRQAPGKERELVAAISSGDTTYYADSVKGRFTISRDNAKNTVYLQMNSLKPQDTAVYYCAAKPRSQVRYGYWGQGTQVTVSS | low polyreactivity
9 | QVQLVESGGGLVQAGGSLRLSCAASGRTFGANAMGWYRQAPGKERELVAASTQDGGSTYYADSVKGRFTISRDNAKNTVYLQMNSLKPEDTAVYYCAADLVVFVQFDVAVDYYYWGQGTQVTVSS | low polyreactivity
10 | QVQLVESGGGLVQAGGSLRLSCADSGLTFIYYAMGWYRQAHGKERELVAAISSSGGRTYYADSVKGRFTISRDNAKNTVYLQMNSLKPEDTAVYYCATRYWTQSSSFDYWGQGTQVTVSS | high polyreactivity
11 | QVQLVDSGGGLVQAGGSLRLSCAASGRIFGSYVMGWYRQAPGKERELVAAITDGGTTYADSVKGRFTISRDNAKNTVYLQMNSLKPEDTAVYYCAADLYDWPLAWWEYYYWGQGTHVTVSS | low polyreactivity
12 | QVQLVESGGGLVQAGGSLRLSCAASGSIFSYNGMGWYRQAPGKEREFVAAITWRGGSTYYADSVKGRFTISRDNAMNTVYLQMNSLKPEDTAVYYCARRPGYALTWRVSGRYDYWGQGTQVTVSS | high polyreactivity
13 | QVQLVESGGGLVQAGGSLRLSCAASGFTFGYYAMGWYRQAPGKEREFVARISWSGDSTYYADSVKGRFTISRDNAKNTVYLQMNSLKPEDTSVYYCAAVVQTSWGKWNDYWGPGTQVTVSS | high polyreactivity
14 | QDQLVESGGGLVQAGGSLRLSCAASGRTFHSYVMGWYRQAPGKERELVAAISRSGGNTYYADSVKGRFTISRDNAKNTVYLQMNSLKPEDTAVYYCAAALSAYVKWDYYYWGQGTQVTVSS | low polyreactivity
15 | QVQLVESGGGLVQAGGSLRLSCAASGFIFGWYGMGWDRQARGKERELVAAITWSGVRTYYADSVKGRFTISRDNAKNTVYLQMNSLKPEDTAVYYCARAGGYVGRGYKDQDGRGDYWGQGTQVTVSS | high polyreactivity
16 | QVQHVESGAGLVQAGGSLRLSCAASGIILLENAIGCYRQQPGKERELVSGISSGGNTNYADSVKGRFTISRDNAKNTVYLQINSLKPEDTAVYYCNTDWYLPRYVLPGYFSGTEDYWGKGTQVTVSS | low polyreactivity
17 | PVQLVESGGGLVQAGGSLRLSCAASGNIFGVYPMGWYRQAPGKERELVAVITSSGSTYADSVKGRFTISRDNAKNTVFLQMNSLKPEDTAVYYCNTDGYYHPHGFDYYRYYYWGQGTQVTVSS | high polyreactivity
18 | QVQLVESGGGLVQAGGILRLSCAASGSIYKPNTMGWYRQAPGKERELVAAITRGGRTKYADSVKGRFTISRDNAKNTVYLQMNSLKPEDTAVYYCNKARYTVISYDEYDDWGQGTQVTGSS | high polyreactivity
19 | QVQLVESGGGLVQAGGSLRLSCAAYGSIFKWYTMGWYRQAPGKERELVADINWNGGRTYYADSVKGRFTISRDYAKNTVYLQMNSLKPEDTAVFDCAASRGDYWGQGTQVTVSS | high polyreactivity
20 | QVQLVESGPGLFQAGGSLRLSCAASGNIFGYNVMAWYRQAPGKERELVAAITWSAGTTNYADSLKGRFTISRDNAKNTVYLQRNSLKPEDTAVYYFAVTWWYQDYDLTCYLYDYWGQGTEVTVSS | low polyreactivity
21 | QVQLVESGGGLVQAGGSLRLSCAASGSIFYGNVMGWYRQAPGKERELVAAISWRGGSTYYADSVKGRFTMSRDNAKNTVYLPMNSLKPEDTAVYYCNAERYYYATYGYPIDYWGQGTQVTVSS | low polyreactivity
22 | QVQHVESGGGIVQAGGSLRLSCAASGITFDEYAMGWYRQAPGKEWELVATITWSGGSTYYADSVKGRFTISRVNAKNTVDLKMNSLKPEDSAVYYCAARDSGRYDDFGYWGQGTQVTVSS | low polyreactivity

Row | Sequence | polyreactivity (PSR sort gate)
23 | QVQLVESGGGLVQAGGSLRLSCAASGSIFRPNTMGWYRQATGKERELVADIRYRGGGTYYADSVKGRFTITRDNATNTVYLQMNSLKPEDTAVYYCAKASAQWVQFDFWGQGNQVTVSS | high polyreactivity
24 | QVQLVESGGGLVQAGGSLRLSCAASGGISSSNAMGWYRPAPGKERELVAGINSRGGSTYADSVKGRFTISRDNAKHTVYLQMNSLKPEDTAVYYCAAAPTFKWRRNNYDYWGQGTQVTVSS | high polyreactivity
25 | KVQLVESGGGLVQAGGSLRLSCAASGFIFYYYAMGWYRQAPGKERELVAAISTDGGSTYYADSVKGRFTISRDNAKNTVYLQMNSLKPEDTAVYYCNAPYYGWGYWPLEYIRYEYWGQGTQVTVSS | low polyreactivity
26 | QVQLVESGGGLVQAGGSLRLSCAASGSTFPKYAMGWYRQAPGKERELVASISVTTGSTYYADSVKGRFTISRDNAKITVYLQMNSLKPEDTAVYYCAKYRPGIPYYQYGSWGQGTQVTVSS | high polyreactivity
27 | QVQLVESGGGLVQAGGSLRLSCAASGRTFYIYAMGWYRQAPGKERELVAAITRIDGSTYYADSVKGRFTISRDNAKNTVYLQMNSLKPEDTAVYYCAAEYGPGLTEGLYYYWGQGTQVTVSS | high polyreactivity
28 | QVQLVESGGGLVQAGGSLRLSSAASRSTFTVYAMGWYRQAPGKETELVAAITGGGRTYYADSVKGRFTISRDNAKNTVYLQMNSLKPEDTAVYYCAKKYSWRYARVYSLHFDYWGQGTQVTVSS | high polyreactivity
29 | QVQLVESGGGLVQAGGSLRLSCAASGFTFYDNAMGWYRQAPGKERELVAAITSNGVNTHYADSVKGRFTISRDNAKNTVYLQMNSLKPEDTAVYYCAADRDPEVTYQKYEYWGQGTQVTVSS | low polyreactivity
30 | QVQLVESGGGLVQAGGSLRLSCAASGRTFQYYAMGWYIQGPGKERELVAAISWSGGSTYYADSVKGRFTISRDNAKNTVYLQMNSLKPEDTAVYFCAAVVGRNRTRSYGYWGQGTQVTVSS | high polyreactivity
31 | QVQLVESGGGLVQAGGSLRLSCAASGSIFNLYAMGWYRQAPGKERELVAAISRSGGSTYYADSVKGRFTISRDNAKNTVYLQMNSLKPEDTAVYYCAARYNWRYDIFDYWGQGTQVTVSS | high polyreactivity
32 | QVQLVESGGGLVQAGGSLRLSCAASGSIFWLYAMGWYRQAPGKERELVAAIDSGDSTKYADSVKGRFTISRDNAKTTVYLQMNSLKPEDTAVYYCNASRRYHVRAPYDYWGQGTQVTLSS | low polyreactivity
33 | QVQLVESGGGLVQAGGSLRLSCAASGRIFWDYALGWYRQAPGKERELVAVITFSGDSTYYADSVKGRFTISRDNAKNTVYVQMNSLKPEDTAVYYCAAARAIRQFWYVATFEYWGQGTQVTVSS | low polyreactivity
34 | QVQLVESGGGLVQAGGSLRLSCAASGNIFYINTMGWYRQEPGKERELVDAIDASDGSTYYADSVKGRFTISRDNAKNTVYLQMNSLKPEDTAVYYFASRRGYDSVYYFYTLWYYYWGQGTQVTVSS | low polyreactivity
35 | QVQLVESGGGLVQAGGSLRLSCAASGSTSHQYAMGSYRQAPGKERELVAAISSRAGSTYYADSVKGRFTISRDNAKNTVYLQMNSLKPEDTAVYYCAAEADSWKWGYDYWGQGTQVTVSS | low polyreactivity
36 | QVQLVESGGGLVQAGGSLRLSCAASGRIFTYYAMGWYSQAPGKERELVAAISRSGGRTYYADSVKGRFTISRDNAKNTVYLQMNSLTPEDTAVYYCAADRLSLRAYDYWGQGTQVTVSS | high polyreactivity
37 | QVQLVESGGGLVQAGGSLRLSCAASGITFDGYAMGWYRQAPGKERELVAAIRSSGGSTYYADSVKGRFTISRDNAKNTVYLQMNSLKPEDTAVYYCATDHAQKFRYRSPREYWGQGTQVTVSS | low polyreactivity
38 | QVQLVESGGGLVQAGGSLRLSCAASGFTFVYYAMGWYRQAPGKEREMVAGISSSDTTSYADSVKGRFTISRDNAKNTVYLQMNSLKPEDTEVYYCATRYWRRYPSTWSYPYYYWGQGTQVTVSS | high polyreactivity
39 | QVQLVESGGGLVQAGGSLRLSCAASGITFVNYAMGWYIQAPGKERELVAAISQSGAITFYADSVKGRFTISRDYAKNNVYLQMNSLKPEDTEVYYCAARRRRGDRSAYDYWGQGTQVTVSS | high polyreactivity
40 | QVQLVESGGGLVQAGGSLRLSCAASGFTFAVYAMGWYRQAPGKERELVAAIDSSDGSTSYADSVKGRFTISRDNAKNTVYLQMNSLKPEDTAVYYCAGDQYWWFYEYEYWGQGTQVTVSS | low polyreactivity
41 | QVQLVESGGGLVQAGGTLRLSCAASGRIFVYNAMGWYRQAPGKERELVATITSGGSTYYSDSLKGRFTISRDNAKNTLYFQMNSLKPEDTAVYYCAARRWYVHYFAYGYWGQGTQVTVSS | low polyreactivity
42 | QLQLVESGGGLVQAGGSLRLSCAASGFTFWGYTIGWYRPAPGKERQLVAGITLSGGSTYYADSVKGRFTISRDNAKNTVYLQMNSLKPEDTAVYYCAAKPYQVSSYDFSLRDYWGQGTQVTVSS | low polyreactivity
43 | QVQLVESGGGLVQAGGSLRLSCAASGGIFAPYAMGWYRQAPGKERELVADITSEGGSTYYADSVKGRFTISRDIEKNTVYLQMNSLKPEDTAVYYCAAEQRYCWWGHPGDYWGKGTQVTVSS | low polyreactivity
